This passage reports mean MALDI-ToF peak intensity of HSA eluted from the beads results from PMC9030890.

The target of this test is recombinant stabilised complete spike protein (SARS-CoV-2), pre-fusion (SARS-CoV-2) (UniProt P0DTC2). The test can be described thus: affinity purification with mass spectrometry.

Turning to “human serum albumin (from UniProt P02768 25-609) (natural protein)”, the mean MALDI-ToF peak intensity of HSA eluted from the beads amounted to 1920 AU.
